Substrate in the data set: O=C(CCc1ccc(O)cc1)c1c(O)cc(O)cc1O[C@@H]1O[C@H](CO)[C@@H](O)[C@H](O)[C@H]1O
Briefly: cells, lysate or membranes. The settings on record: Xenopus oocytes, pH 5.0, 15 min uptake, cumulative transport assay.

B1: PUP8 (AtPUP8) (Arabidopsis thaliana) (protein)
chain: MEITQVIYVNDHNNIEANLTGQEEMNTTMEIESSSVPQSKNYKKWLRISIYVFFVLACQALSTILGRVYYENGGKSTWMGTLVQLIGFPVLFLFRFFSQTKNPKPTEADFRKFSSFTILGSVYIVTGLLVSANSYMSSVGLLYLPVSTFSLILASQLAFTAFFSYFLNSQKFTPFIVNSLFLLTISSALLVVNTDSENTAKVSRVKYVIGIICTIGASAGIGLLLSLVQLILRKVLKKQTFSTVTDLVAYQSLVASCVVLIGLFASGEWKTLTSEMENYKLGKVPYVMTLASIAISWQVYTIGVVGLIFESSSVFSNSITAVGLPIVPVVAVIVFHDKMNASKIFSIILAIWGFISFVYQHYLDEKKLKTSHTSPVGDPHLLPAEEGHTNIHSV
As to B1, the Km was 296 ± 39 µM.

In general, Km refers to the substrate concentration at which the rate is half of its maximum.

Source of the values: publication doi:10.1101/2020.08.14.248047v1.
